This is an account of results in patent US20020164696.

The target in data set [1] is T1, synthetic peptide corresponding to camel kappa-CN.
T1 chain: RPRPRPSXIAI

Data set [2] concerns the target T2, synthetic peptide corresponding to bovine kappa-CN.
T2 chain: HPHPHLSXMAI

B1: recombinant Camelus dromedarius chymosin (protein)
chain: GKVAREPLTSYLDSQYFGKIYIGTPPQEFTVVFDTGSSDLWVPSIYCKSNVCKNHHRFDPRKSSTFRNLGKPLSIHYGTGSMEGFLGYDTVTVSNIVDPNQTVGLSTEQPGEVFTYSEFDGILGLAYPSLASEYSVPVFDNMMDRHLVARDLFSVYMDRNGQGSMLTLGAIDPSYYTGSLHWVPVTLQQYWQFTVDSVTINGVAVACVGGCQAILDTGTSVLFGPSSDILKIQMAIGATENRYGEFDVNCGNLRSMPTVVFEINGRDYPLSPSAYTSKDQGFCTSGFQGDNNSELWILGDVFIREYYSVFDRANNRVGLAKAI
As for B1, in data set [1], the “KM for Cd κ-CN” value is 0.056 ± 0.035/-0.021 mM and the “kcat for Cd κ-CN” value is given as 5.1 ± 1.7/-1.0 s^-1. For the same protein, in data set [2], the “KM for Bt κ-CN” value is reported as 0.077 ± 0.019/-0.015 mM and the “kcat for Bt κ-CN” value is 11.7 ± 1.5/-1.2 s^-1.

B2: recombinantly produced bovine chymosin, ChyMax (protein)
chain: GEVASVPLTNYLDSQYFGKIYLGTPPQEFTVLFDTGSSDFWVPSIYCKSNACKNHQRFDPRKSSTFQNLGKPLSIHYGTGSMQGILGYDTVTVSNIVDIQQTVGLSTQEPGDVFTYAEFDGILGMAYPSLASEYSIPVFDNMMNRHLVAQDLFSVYMDRNGQESMLTLGAIDPSYYTGSLHWVPVTVQQYWQFTVDSVTISGVVVACEGGCQAILDTGTSKLVGPSSDILNIQQAIGATQNQYGEFDIDCDNLSYMPTVVFEINGKMYPLTPSAYTSQDQGFCTSGFQSENHSQKWILGDVFIREYYSVFDRANNLVGLAKAI
Take B2: in data set [1], the “KM for Cd κ-CN” value is given as 0.134 ± 0.022/-0.021 mM and the kcat for Cd κ-CN worked out at 4.3 s⁻¹. Besides, in data set [2], the “KM for Bt κ-CN” value is given as 0.165 ± 0.015/-0.014 mM and the kcat for Bt κ-CN is 44.3 s⁻¹.
